Results reported in doi:10.64898/2025.12.22.695782.
Read-outs that look alike come from different tables or passages of the source.

Tests used:
Assay in all cases: NMR HSQC titration
TDP-43 CTD WT [1] = biological target: T1, TDP-43 CTD WT (Homo sapiens, UniProt Q13148 267-414)
TDP-43 CTD WT [2] = biological target: T1, TDP-43 CTD WT; remark: listed apart in the source
TDP-43 CTD WT [3] = biological target: T1, TDP-43 CTD WT; remark: listed apart in the source
TDP-43 CTD WT [4] = biological target: T1, TDP-43 CTD WT; remark: listed apart in the source
TDP-43 CTD WT [5] = biological target: T1, TDP-43 CTD WT; remark: listed apart in the source
TDP-43 CTD WT [6] = biological target: T1, TDP-43 CTD WT; remark: listed apart in the source
TDP-43 CTD WT [7] = biological target: T1, TDP-43 CTD WT; remark: listed apart in the source

T1 sequence (Q13148 267-414): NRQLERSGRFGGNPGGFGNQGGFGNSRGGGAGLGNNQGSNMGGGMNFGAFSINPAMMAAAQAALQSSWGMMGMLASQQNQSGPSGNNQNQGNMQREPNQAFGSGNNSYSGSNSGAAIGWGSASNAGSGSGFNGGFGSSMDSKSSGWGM

AAAAAAAAAAAA (ssDNA) [dA12]: binds (TDP-43 CTD WT [1]).

CACCTTCCCCACCCTCCCCACCCTCCCCATAAGC (structured_DNA) [c-Myc I-motif]: binds (TDP-43 CTD WT [2]).

GGGGGGGGGGGG (structured_DNA) [dG12]: binds (TDP-43 CTD WT [3]).

TGTGTGTGTGTGTGTGTGTGTGTGTGTGTGTGTG (ssDNA) [(TG)17]: binds (TDP-43 CTD WT [4]).

UUUUUUUUUUUU (ssDNA, deoxyuridine (DNA backbone) throughout) [dU12]: binds (TDP-43 CTD WT [5]).

GCTTATGGGGAGGGTGGGGAGGGTGGGGAAGGTG (structured_DNA) [c-Myc G4]: binds (TDP-43 CTD WT [6]).

CCCCCCCCCCCC (structured_DNA) [dC12]: binds (TDP-43 CTD WT [3]).

TTTTTTTTTTTT (ssDNA) [dT12]: binds (TDP-43 CTD WT [7]).
